From patent US20030017160

T1: GST-Cdc25C, P30307
T1 chain: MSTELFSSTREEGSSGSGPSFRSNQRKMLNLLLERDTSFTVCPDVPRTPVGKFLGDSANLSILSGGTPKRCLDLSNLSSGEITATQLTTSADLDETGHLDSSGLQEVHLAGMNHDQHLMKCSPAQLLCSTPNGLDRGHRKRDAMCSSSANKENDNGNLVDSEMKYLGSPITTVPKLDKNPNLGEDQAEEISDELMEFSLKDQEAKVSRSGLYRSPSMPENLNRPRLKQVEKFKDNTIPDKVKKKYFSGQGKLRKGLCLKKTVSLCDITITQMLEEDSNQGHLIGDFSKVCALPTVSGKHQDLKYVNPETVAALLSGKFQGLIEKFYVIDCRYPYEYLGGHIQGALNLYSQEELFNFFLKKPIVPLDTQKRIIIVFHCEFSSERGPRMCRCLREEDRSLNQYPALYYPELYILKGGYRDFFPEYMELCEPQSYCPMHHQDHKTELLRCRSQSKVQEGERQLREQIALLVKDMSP

B1: 6his-Chk1 (protein)
chain: MAVPFVEDWDLVQTLGEGAYGEVQLAVNRVTEEAVAVKIVDMKRAVDCPENIKKEICINKMLNHENVVKFYGHRREGNIQYLFLEYCSGGELFDRIEPDIGMPEPDAQRFFHQLMAGVVYLHGIGITHRDIKPENLLLDERDNLKISDFGLATVFRYNNRERLLNKMCGTLPYVAPELLKRREFHAEPVDVWSCGIVLTAMLAGELPWDQPSDSCQEYSDWKEKKTYLNPWKKIDSAPLALLHKILVENPSARITIPDIKKDRWYNKPLKKGAKRPRVTSGGVSESPSGFSKHIQSNLDFSPVNSASSEENVKYSSSQPEPRTGLSLWDTSPSYIDKLVQGISFSQPTCPDHMLLNSQLLGTPGSSQNPWQRLVKRMTRFFTKLDADKSYQCLKETCEKLGYQWKKSCMNQVTISTTDRRNNKLIFKVNLLEMDDKILVDFRLSKGDGLEFKRHFLKIKGKLIDIVSSQKIWLPAT
B2: GST-Cdc25C (protein)
chain: T1 chain

How the values were obtained:
GST-Cdc25C, P30307 = target: T1, GST-Cdc25C, P30307

Sequence of 6his-Cdc2, P06493 (P06493 whole entry, looked up): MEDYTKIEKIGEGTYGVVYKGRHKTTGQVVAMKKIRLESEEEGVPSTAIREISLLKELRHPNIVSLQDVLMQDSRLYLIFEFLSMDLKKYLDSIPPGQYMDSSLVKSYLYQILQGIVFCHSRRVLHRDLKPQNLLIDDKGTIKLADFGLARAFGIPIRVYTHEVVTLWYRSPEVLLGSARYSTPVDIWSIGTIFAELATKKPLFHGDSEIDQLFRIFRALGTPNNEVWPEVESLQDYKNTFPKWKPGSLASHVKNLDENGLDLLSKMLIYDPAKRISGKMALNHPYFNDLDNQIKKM

| Protein | GST-Cdc25 phosphatase activity (loss of the slower migrating phosphorylated forms of Cdc2 on gel) (GST-Cdc25C, P30307) | phosphorylation with gamma-32P ATP, SDS-PAGE and autoradiography (GST-Cdc25C, P30307) | Cdc2 dephosphorylation by gel-mobility analysis (6his-Cdc2, P06493) |
| --- | --- | --- | --- |
| B1 | Prior phosphorylation of GST-Cdc25 by 6his-Chk1 leads to a dose-dependent reduction in GST-Cdc25 activity | GST-Cdc25 was phosphorylated by 6his-Chk1 and by 6his-hCDS1 | – |
| B2 | – | – | GST-Cdc25 catalyses a reduction in the slower migrating phosphorylated forms of Cdc2 |
